PMC9352680, “A comprehensive thermodynamic model for RNA binding by the Saccharomyces cerevisiae Pumilio protein PUF4”
Substitutions are numbered along the chain they refer to. Names may count otherwise.

T1: PUF4 RNA-binding domain (Saccharomyces cerevisiae, UniProt P25339 537-888)
T1 sequence: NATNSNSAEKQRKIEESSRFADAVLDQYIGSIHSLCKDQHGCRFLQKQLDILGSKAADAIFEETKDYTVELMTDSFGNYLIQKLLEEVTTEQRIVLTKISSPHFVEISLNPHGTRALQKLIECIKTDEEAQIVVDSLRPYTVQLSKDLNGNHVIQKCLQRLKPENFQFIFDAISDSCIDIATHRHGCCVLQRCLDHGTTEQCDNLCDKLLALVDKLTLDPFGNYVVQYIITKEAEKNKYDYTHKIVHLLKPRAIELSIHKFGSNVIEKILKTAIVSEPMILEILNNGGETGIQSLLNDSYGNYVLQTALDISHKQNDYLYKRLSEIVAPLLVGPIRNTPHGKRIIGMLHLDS

B1: Ia_S2_P3E.1_K3.1_C3.1_H3.1_[T1C]_A3.1_F3.1_T3.1 (ssRNA)
RNA: UUUGAUUAAUAUGAUAUCGUUCUUUCUCGUAUAUAUUCUUUCUCGAUAUCAUAUUAAUCUUU
B2: Ic_S2_P3E.1_K3.1_C3.1_H3.1_A3.1_F3.1_[T7A]_[A8C]_T3.1 (ssRNA)
RNA: B1 RNA with C28U, U34A, A35C
B3: Ib_S2_P3E.1_K3.1_C3.1_H3.1_A3.1_F3.1_[T7C]_[A8T]_T3.1 (ssRNA)
RNA: B1 RNA with C28U, U34C, A35U
B4: Ic_S2_P3E.1_K3.1_C3.1_H3.1_A3.1_F3.1_[T7A]_[A8T]_T3.1 (ssRNA)
RNA: B1 RNA with C28U, U34A, A35U
B5: Ib_S2_P3E.1_K3.1_C3.1_H3.1_[T1C]_A3.1_F3.1_[T7C]_T3.1 (ssRNA)
RNA: B1 RNA with U34C
B6: Ic_S2_P3E.1_K3.1_C3.1_H3.1_A3.1_F3.1_[T7C]_[A8C]_T3.1 (ssRNA)
RNA: B1 RNA with C28U, U34C, A35C

Target: T1, PUF4 RNA-binding domain
Experiment: Mg; RNA-MaP; 20 mM Na-HEPES pH 7.4, 30 mM KOAc, 0.75 mM MgCl2, 0.1% Tween-20, 5% glycerol, 0.1 mg/mL BSA, 2 mM DTT; 25 C; 0.0125-409.6 nM protein
Details: tags: N-His6-TEV cleaved; C-SNAP kept, Cy3B-labelled; label: tethered on chip by stalled RNA polymerase

Row | Binder | Kd [nM]
1 | UCUCUUUGUAUUUCCUAUUAUCUCUU (ssRNA) [Ie_S1_P5E.1_K5.1_C5.1_H5.1_A5.1_[+5TTCC]_F5.1_T5.1] | 15.9
2 | UCUCUUUGUAUUCUCUAUUAUCUCUU (ssRNA) [Ie_S1_P5E.1_K5.1_C5.1_H5.1_A5.1_[+5TCTC]_F5.1_T5.1] | 22.9
3 | UCUCUUUGUAUAUUUCUAUCUCUU (ssRNA) [Ie_S1_P4E.1_K4.1_C4.1_H4.1_A4.1_[+7TTC]_F4.1_T4.1] | 5.38
4 | UCUCUUUGUAUCCUCUAUUAUCUCUU (ssRNA) [Ie_S1_P5E.1_K5.1_C5.1_H5.1_A5.1_[+5CCTC]_F5.1_T5.1] | 23.9
5 | UCUCUUUGUAUUUCCAUUAUCUCUU (ssRNA) [Ie_S1_P4E.1_K4.1_C4.1_H4.1_A4.1_[+5TTCC]_F4.1_T4.1] | 96.6
6 | UCUCUUUGUAUCCCUUAUUAUCUCUU (ssRNA) [Ie_S1_P4E.1_K4.1_C4.1_H4.1_A4.1_[+5CCCTT]_F4.1_T4.1] | 41
7 | UCUCUUUGUAUAUUCUUAUCUCUU (ssRNA) [Ie_S1_P4E.1_K4.1_C4.1_H4.1_A4.1_[+6TTC]_F4.1_T4.1] | 6.67
8 | UCUCUUUGUACCCUUUAUUAUCUCUU (ssRNA) [Ie_S1_P5E.1_K5.1_C5.1_H5.1_[+4CCCT]_A5.1_F5.1_T5.1] | 17.8
9 | UCUCUUUGUAUACCCUUAUCUCUU (ssRNA) [Ie_S1_P4E.1_K4.1_C4.1_H4.1_A4.1_[+6CCC]_F4.1_T4.1] | 35.3
10 | UCUCUUUGUAUAUUUUAUCUCUU (ssRNA) [Ie_S1_P4E.1_K4.1_C4.1_H4.1_A4.1_[+7TT]_F4.1_T4.1] | 4.6
11 | UCUCUUUGUAUAUUCUAUCUCUU (ssRNA) [Ie_S1_P4E.1_K4.1_C4.1_H4.1_A4.1_F4.1_[+8CT]_T4.1] | 5.4
12 | UCUCUUUGUAUACCCUUUAUCUCUU (ssRNA) [Ie_S1_P4E.1_K4.1_C4.1_H4.1_A4.1_[+6CCCT]_F4.1_T4.1] | 48.6
13 | UCUCUUUGUACCUUAUUAUCUCUU (ssRNA) [Ie_S1_P4E.1_K4.1_C4.1_H4.1_[+4CCT]_A4.1_F4.1_T4.1] | 4.83
14 | UCUCUUUGUAUAUCUUUAUCUCUU (ssRNA) [Ie_S1_P4E.1_K4.1_C4.1_H4.1_A4.1_[+6TCT]_F4.1_T4.1] | 13.9
15 | UCUCUUUGUACCCUAUUAUCUCUU (ssRNA) [Ie_S1_P4E.1_K4.1_C4.1_H4.1_[+4CCC]_A4.1_F4.1_T4.1] | 5.85
16 | UCUCUUUGUACUCUUAUUAUCUCUU (ssRNA) [Ie_S1_P5E.1_K5.1_C5.1_H5.1_[+4CTC]_A5.1_F5.1_T5.1] | 6.55
17 | UCUCUUUGUACCUCUAUUAUCUCUU (ssRNA) [Ie_S1_P4E.1_K4.1_C4.1_H4.1_[+4CCTC]_A4.1_F4.1_T4.1] | 12.7
18 | UCUCUUUGUAUACCUUAUCUCUU (ssRNA) [Ie_S1_P4E.1_K4.1_C4.1_H4.1_A4.1_[+6CC]_F4.1_T4.1] | 8.34
19 | UCUCUUUGUAUACUCUCUUAUCUCUU (ssRNA) [Ie_S1_P4E.1_K4.1_C4.1_H4.1_A4.1_[+6CTCTC]_F4.1_T4.1] | 10.9
20 | UCUCUUUGUAUCUCAUUAUCUCUU (ssRNA) [Ie_S1_P4E.1_K4.1_C4.1_H4.1_A4.1_[+5CTC]_F4.1_T4.1] | 37.1
21 | UCUCUUUGUAUUUUAUUAUCUCUU (ssRNA) [Ie_S1_P5E.1_K5.1_C5.1_H5.1_[+4TT]_A5.1_F5.1_T5.1] | 2.74

Row | Binder | Kd [nM]
22 | UCUCUUUGUAUCCUAUUAUCUCUU (ssRNA) [Ie_S1_P4E.1_K4.1_C4.1_H4.1_[+4TCC]_A4.1_F4.1_T4.1] | 5.92
23 | UCUCUUUGUAUAUCCUAUCUCUU (ssRNA) [Ie_S1_P4E.1_K4.1_C4.1_H4.1_A4.1_[+7CC]_F4.1_T4.1] | 14.2
24 | UCUCUUUGUAUCUCUUAUUAUCUCUU (ssRNA) [Ie_S1_P5E.1_K5.1_C5.1_H5.1_[+4TCTC]_A5.1_F5.1_T5.1] | 21.8
25 | UCUCUUUGUAUAUUCCUAUCUCUU (ssRNA) [Ie_S1_P4E.1_K4.1_C4.1_H4.1_A4.1_F4.1_[+8CCT]_T4.1] | 8.2
26 | UCUCUUUGUAUUCCUUAUUAUCUCUU (ssRNA) [Ie_S1_P4E.1_K4.1_C4.1_H4.1_[+4TTCCT]_A4.1_F4.1_T4.1] | 19
27 | UCUCUUUGUACUUUAUUAUCUCUU (ssRNA) [Ie_S1_P5E.1_K5.1_C5.1_H5.1_[+4CT]_A5.1_F5.1_T5.1] | 2.73
28 | UCUCUUUGUAUCCCUAUUAUCUCUU (ssRNA) [Ie_S1_P5E.1_K5.1_C5.1_H5.1_A5.1_[+5CCC]_F5.1_T5.1] | 20
29 | UCUCUUUGUAUAUCUUAUCUCUU (ssRNA) [Ie_S1_P4E.1_K4.1_C4.1_H4.1_A4.1_[+7CT]_F4.1_T4.1] | 6.9
30 | UCUCUUUGUAUCCUCAUUAUCUCUU (ssRNA) [Ie_S1_P4E.1_K4.1_C4.1_H4.1_A4.1_[+5CCTC]_F4.1_T4.1] | 38.3
31 | UCUCUUUGUAUAUCCCUAUCUCUU (ssRNA) [Ie_S1_P4E.1_K4.1_C4.1_H4.1_A4.1_[+7CCC]_F4.1_T4.1] | 31.9
32 | UCUCUUUGUAUCCCAUUAUCUCUU (ssRNA) [Ie_S1_P4E.1_K4.1_C4.1_H4.1_A4.1_[+5CCC]_F4.1_T4.1] | 76.1
33 | UCUCUUUGUAUCUUAUUAUCUCUU (ssRNA) [Ie_S1_P4E.1_K4.1_C4.1_H4.1_[+4TCT]_A4.1_F4.1_T4.1] | 4
34 | UCUCUUUGUAUACCUCUUUAUCUCUU (ssRNA) [Ie_S1_P4E.1_K4.1_C4.1_H4.1_A4.1_[+6CCTCT]_F4.1_T4.1] | 27.5
35 | UCUCUUUGUACCUCUUAUUAUCUCUU (ssRNA) [Ie_S1_P4E.1_K4.1_C4.1_H4.1_[+4CCTCT]_A4.1_F4.1_T4.1] | 27.7
36 | UCUCUUUGUAUCUCUAUUAUCUCUU (ssRNA) [Ie_S1_P5E.1_K5.1_C5.1_H5.1_A5.1_[+5CTC]_F5.1_T5.1] | 13.2
37 | UCUCUUUGUAUAUCUCUUUAUCUCUU (ssRNA) [Ie_S1_P4E.1_K4.1_C4.1_H4.1_A4.1_[+6TCTCT]_F4.1_T4.1] | 14.7
38 | UCUCUUUGUAUAUUCUCUAUCUCUU (ssRNA) [Ie_S1_P4E.1_K4.1_C4.1_H4.1_A4.1_F4.1_[+8CTCT]_T4.1] | 7.11
39 | UCUCUUUGUAUAUCUCUUAUCUCUU (ssRNA) [Ie_S1_P4E.1_K4.1_C4.1_H4.1_A4.1_[+6TCTC]_F4.1_T4.1] | 24.4
40 | UCUCUUUGUAUACUUUUAUCUCUU (ssRNA) [Ie_S1_P4E.1_K4.1_C4.1_H4.1_A4.1_[+6CTT]_F4.1_T4.1] | 6.8
41 | UCUCUUUGUAUAUCCUCUAUCUCUU (ssRNA) [Ie_S1_P4E.1_K4.1_C4.1_H4.1_A4.1_[+7CCTC]_F4.1_T4.1] | 25.3
42 | UCUCUUUGUAUUUAUUAUCUCUU (ssRNA) [Ie_S1_P4E.1_K4.1_C4.1_H4.1_[+4TT]_A4.1_F4.1_T4.1] | 16.2

Row | Binder | Kd [nM]
43 | UCUCUUUGUACCCUUAUUAUCUCUU (ssRNA) [Ie_S1_P4E.1_K4.1_C4.1_H4.1_[+4CCCT]_A4.1_F4.1_T4.1] | 6.31
44 | UCUCUUUGUAUAUUUUUAUCUCUU (ssRNA) [Ie_S1_P4E.1_K4.1_C4.1_H4.1_A4.1_[+7TTT]_F4.1_T4.1] | 5.93
45 | UCUCUUUGUAUAUUUCCUAUCUCUU (ssRNA) [Ie_S1_P4E.1_K4.1_C4.1_H4.1_A4.1_[+7TTCC]_F4.1_T4.1] | 6.97
46 | UCUCUUUGUAUAUCCCUUAUCUCUU (ssRNA) [Ie_S1_P4E.1_K4.1_C4.1_H4.1_A4.1_[+7CCCT]_F4.1_T4.1] | 23.4
47 | UCUCUUUGUAUUCUAUUAUCUCUU (ssRNA) [Ie_S1_P5E.1_K5.1_C5.1_H5.1_A5.1_[+5TC]_F5.1_T5.1] | 3.27
48 | UCUCUUUGUAUUCUCAUUAUCUCUU (ssRNA) [Ie_S1_P5E.1_K5.1_C5.1_H5.1_A5.1_[+6CTC]_F5.1_T5.1] | 33.8
49 | UCUCUUUGUAUAUCCUUAUCUCUU (ssRNA) [Ie_S1_P4E.1_K4.1_C4.1_H4.1_A4.1_[+7CCT]_F4.1_T4.1] | 16.4
50 | UCUCUUUGUAUUCCAUUAUCUCUU (ssRNA) [Ie_S1_P4E.1_K4.1_C4.1_H4.1_A4.1_[+5TCC]_F4.1_T4.1] | 62
51 | UCUCUUUGUAUACUCUUAUCUCUU (ssRNA) [Ie_S1_P4E.1_K4.1_C4.1_H4.1_A4.1_[+6CTC]_F4.1_T4.1] | 8.94
52 | UCUCUUUGUAUACCUCUUAUCUCUU (ssRNA) [Ie_S1_P4E.1_K4.1_C4.1_H4.1_A4.1_[+6CCTC]_F4.1_T4.1] | 41.5
53 | B1 | 136
54 | B2 | 27.7
55 | B3 | 3.86
56 | B4 | 6.77
57 | B5 | 649
58 | B6 | 21.1
59 | UCUCUUUGUAUACUCUUUAUCUCUU (ssRNA) [Ie_S1_P4E.1_K4.1_C4.1_H4.1_A4.1_[+6CTCT]_F4.1_T4.1] | 12.6
60 | UCUCUUUGUAUUUCAUUAUCUCUU (ssRNA) [Ie_S1_P4E.1_K4.1_C4.1_H4.1_A4.1_[+5TTC]_F4.1_T4.1] | 39.7
61 | UCUCUUUGUAUUCCUAUUAUCUCUU (ssRNA) [Ie_S1_P5E.1_K5.1_C5.1_H5.1_A5.1_[+5TCC]_F5.1_T5.1] | 10.3
